# The supplement of paper PMC10567573
# B1: VENTX (parent)
# chain: VFQHHQYLSPLERKRLAREMQLSE
# Variants of: B1
# Assay: protein stability index of a GFP-peptide fusion (GPS, HEK-293T) (PSI 1-6); higher = more stable
# Details: c terminus: a fixed tail appended
# 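Also: lentivirally expressed fusions sorted by FACS into six bins by GFP to DsRed ratio, PSI derived from sequencing read proportions per bin multiplied by bin number.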
row,Variant,protein stability index
1,YFQHHQYLSPLERKRLAREMQLSE [V1Y],2.36
2,VAQHHQYLSPLERKRLAREMQLSE [F2A],2.11
3,VCQHHQYLSPLERKRLAREMQLSE [F2C],3.08
4,VDQHHQYLSPLERKRLAREMQLSE [F2D],4.44
5,VEQHHQYLSPLERKRLAREMQLSE [F2E],4.48
6,VGQHHQYLSPLERKRLAREMQLSE [F2G],3.57
7,VHQHHQYLSPLERKRLAREMQLSE [F2H],3.38
8,VIQHHQYLSPLERKRLAREMQLSE [F2I],3.12
9,VKQHHQYLSPLERKRLAREMQLSE [F2K],3.61
10,VLQHHQYLSPLERKRLAREMQLSE [F2L],3.22
11,VMQHHQYLSPLERKRLAREMQLSE [F2M],3.1
12,VNQHHQYLSPLERKRLAREMQLSE [F2N],2.97
13,VPQHHQYLSPLERKRLAREMQLSE [F2P],4.18
14,VQQHHQYLSPLERKRLAREMQLSE [F2Q],4
15,VRQHHQYLSPLERKRLAREMQLSE [F2R],3.02
16,VSQHHQYLSPLERKRLAREMQLSE [F2S],3.91
17,VTQHHQYLSPLERKRLAREMQLSE [F2T],3.05
18,VVQHHQYLSPLERKRLAREMQLSE [F2V],2.55
19,VWQHHQYLSPLERKRLAREMQLSE [F2W],2.42
20,VYQHHQYLSPLERKRLAREMQLSE [F2Y],3.01
21,VFAHHQYLSPLERKRLAREMQLSE [Q3A],3.03
22,VFCHHQYLSPLERKRLAREMQLSE [Q3C],1.85
23,VFDHHQYLSPLERKRLAREMQLSE [Q3D],4.04
24,VFEHHQYLSPLERKRLAREMQLSE [Q3E],3.84

row,Variant,protein stability index
1,VFFHHQYLSPLERKRLAREMQLSE [Q3F],1.66
2,VFGHHQYLSPLERKRLAREMQLSE [Q3G],2.82
3,VFHHHQYLSPLERKRLAREMQLSE [Q3H],2.11
4,VFIHHQYLSPLERKRLAREMQLSE [Q3I],2.07
5,VFKHHQYLSPLERKRLAREMQLSE [Q3K],3
6,VFLHHQYLSPLERKRLAREMQLSE [Q3L],1.29
7,VFMHHQYLSPLERKRLAREMQLSE [Q3M],2.27
8,VFNHHQYLSPLERKRLAREMQLSE [Q3N],3.05
9,VFPHHQYLSPLERKRLAREMQLSE [Q3P],2.98
10,VFRHHQYLSPLERKRLAREMQLSE [Q3R],2.17
11,VFSHHQYLSPLERKRLAREMQLSE [Q3S],3.81
12,VFTHHQYLSPLERKRLAREMQLSE [Q3T],2.96
13,VFVHHQYLSPLERKRLAREMQLSE [Q3V],2.78
14,VFWHHQYLSPLERKRLAREMQLSE [Q3W],1.79
15,VFYHHQYLSPLERKRLAREMQLSE [Q3Y],2.56
16,VFQAHQYLSPLERKRLAREMQLSE [H4A],3.37
17,VFQCHQYLSPLERKRLAREMQLSE [H4C],2.56
18,VFQDHQYLSPLERKRLAREMQLSE [H4D],3.68
19,VFQEHQYLSPLERKRLAREMQLSE [H4E],3.52
20,VFQFHQYLSPLERKRLAREMQLSE [H4F],1.69
21,VFQGHQYLSPLERKRLAREMQLSE [H4G],3.26
22,VFQIHQYLSPLERKRLAREMQLSE [H4I],2.43
23,VFQKHQYLSPLERKRLAREMQLSE [H4K],2.5
24,VFQLHQYLSPLERKRLAREMQLSE [H4L],2.89

row,Variant,protein stability index
1,VFQMHQYLSPLERKRLAREMQLSE [H4M],2.31
2,VFQNHQYLSPLERKRLAREMQLSE [H4N],2.85
3,VFQPHQYLSPLERKRLAREMQLSE [H4P],3.27
4,VFQQHQYLSPLERKRLAREMQLSE [H4Q],3.5
5,VFQRHQYLSPLERKRLAREMQLSE [H4R],2.37
6,VFQSHQYLSPLERKRLAREMQLSE [H4S],2.91
7,VFQTHQYLSPLERKRLAREMQLSE [H4T],3.06
8,VFQVHQYLSPLERKRLAREMQLSE [H4V],2.7
9,VFQWHQYLSPLERKRLAREMQLSE [H4W],2.03
10,VFQYHQYLSPLERKRLAREMQLSE [H4Y],2.21
11,VFQHAQYLSPLERKRLAREMQLSE [H5A],2.5
12,VFQHCQYLSPLERKRLAREMQLSE [H5C],2.17
13,VFQHDQYLSPLERKRLAREMQLSE [H5D],3.47
14,VFQHEQYLSPLERKRLAREMQLSE [H5E],3.71
15,VFQHFQYLSPLERKRLAREMQLSE [H5F],2.96
16,VFQHGQYLSPLERKRLAREMQLSE [H5G],3.71
17,VFQHIQYLSPLERKRLAREMQLSE [H5I],2.08
18,VFQHKQYLSPLERKRLAREMQLSE [H5K],2.94
19,VFQHLQYLSPLERKRLAREMQLSE [H5L],2.42
20,VFQHMQYLSPLERKRLAREMQLSE [H5M],3.19
21,VFQHNQYLSPLERKRLAREMQLSE [H5N],2.83
22,VFQHPQYLSPLERKRLAREMQLSE [H5P],3.21
23,VFQHQQYLSPLERKRLAREMQLSE [H5Q],3.01
24,VFQHRQYLSPLERKRLAREMQLSE [H5R],1.93

row,Variant,protein stability index
1,VFQHSQYLSPLERKRLAREMQLSE [H5S],2.63
2,VFQHTQYLSPLERKRLAREMQLSE [H5T],4.21
3,VFQHVQYLSPLERKRLAREMQLSE [H5V],2.78
4,VFQHWQYLSPLERKRLAREMQLSE [H5W],1.96
5,VFQHYQYLSPLERKRLAREMQLSE [H5Y],2.43
6,VFQHHAYLSPLERKRLAREMQLSE [Q6A],2.75
7,VFQHHCYLSPLERKRLAREMQLSE [Q6C],1.83
8,VFQHHDYLSPLERKRLAREMQLSE [Q6D],3.23
9,VFQHHEYLSPLERKRLAREMQLSE [Q6E],3.66
10,VFQHHFYLSPLERKRLAREMQLSE [Q6F],1.84
11,VFQHHGYLSPLERKRLAREMQLSE [Q6G],2.51
12,VFQHHHYLSPLERKRLAREMQLSE [Q6H],3.06
13,VFQHHIYLSPLERKRLAREMQLSE [Q6I],2.17
14,VFQHHKYLSPLERKRLAREMQLSE [Q6K],2.69
15,VFQHHLYLSPLERKRLAREMQLSE [Q6L],2.02
16,VFQHHMYLSPLERKRLAREMQLSE [Q6M],2.56
17,VFQHHNYLSPLERKRLAREMQLSE [Q6N],3.05
18,VFQHHPYLSPLERKRLAREMQLSE [Q6P],2.09
19,VFQHHRYLSPLERKRLAREMQLSE [Q6R],2.47
20,VFQHHSYLSPLERKRLAREMQLSE [Q6S],2.3
21,VFQHHTYLSPLERKRLAREMQLSE [Q6T],2.75
22,VFQHHVYLSPLERKRLAREMQLSE [Q6V],2.42
